Columns and labels:
PR [1] = target: T1, PR (Homo sapiens, UniProt P06401); assay: GST in vitro pulldown assay with 35S-labeled PSF and GST-PR fusion proteins; assay type: binding; settings: 35S-labeled PSF
T1 construct: made in house; host or cells: E. coli BL21(DE3)pLysS (GST-PR); rabbit reticulocyte lysate (35S His-PSF)
T1 sequence (P06401 556-650): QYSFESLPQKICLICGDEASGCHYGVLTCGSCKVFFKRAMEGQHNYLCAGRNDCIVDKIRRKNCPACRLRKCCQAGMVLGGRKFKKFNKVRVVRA
Procedure: (§1) FIG. 3. Mapping PSF and PR interaction site. (A) GST or GST-PR fusion proteins bound to glutathione-sepharose beads were incubated with ^35S-labeled PSF and binding of PSF was assessed by autoradiography. (B) GST or GST-PSF fusion proteins bound to glutathione-sepharose beads were incubated with ^35S-labeled PRB and binding of PRB was assessed by autoradiography. Input represents 10% of the material used for each sample in A and B. (C) GST-PSF fusion proteins used in assay B were separated on SDS gel and stained with commassie blue.
(§2) For immunoprecipitation of the endogenous PR and PSF, T47D cells cultured in 150 mm dishes were lysed in 800 μl NETN buffer containing 150 mM NaCl plus protease inhibitor cocktail. Cell lysate were then incubated with 5 μg of PR or PSF, or control mouse IgG at 4° C. overnight, followed by the addition of 30 μl of protein A/G PLUS-agarose beads (Santa Cruz) for another two hours at 4° C. Resins were washed with NETN containing 250 mM NaCl and eluted with 1×Laemmli buffer. […] Gels were treated with Enhancer (NEN, Boston, US) dried and analyzed by autoradiography. • Cell culture and transient transfection: SHM cells and 293T cells were maintained in DMEM plus 5% FCS (Sigma) as described before (22). […] Luciferase activity was determined by using the luciferin reagent (Promega) according to manufacture's protocol. […]

PR [2] = assay: as above; assay type: binding; settings: 35S-labeled PSF
Procedure: as §1, §2

B1: polypyrimidine tract binding protein-associated splicing factor (protein)
chain: MSRDRFRSRGGGGGGFHRRGGGGGRGGLHDFRSPPPGMGLNQNRGPMGPGPGQSGPKPPIPPPPPHQQQQQPPPQQPPPQQPPPHQPPPHPQPHQQQQPPPPPQDSSKPVVAQGPGPAPGVGSAPPASSSAPPATPPTSGAPPGSGPGPTPTPPPAVTSAPPGAPPPTPPSSGVPTTPPQAGGPPPPPAAVPGPGPGPKQGPGPGGPKGGKMPGGPKPGGGPGLSTPGGHPKPPHRGGGEPRGGRQHHPPYHQQHHQGPPPGGPGGRSEEKISDSEGFKANLSLLRRPGEKTYTQRCRLFVGNLPADITEDEFKRLFAKYGEPGEVFINKGKGFGFIKLESRALAEIAKAELDDTPMRGRQLRVRFATHAAALSVRNLSPYVSNELLEEAFSQFGPIERAVVIVDDRGRSTGKGIVEFASKPAARKAFERCSEGVFLLTTTPRPVIVEPLEQLDDEDGLPEKLAQKNPMYQKERETPPRFAQHGTFEYEYSQRWKSLDEMEKQQREQVEKNMKDAKDKLESEMEDAYHEHQANLLRQDLMRRQEELRRMEELHNQEMQKRKEMQLRQEEERRRREEEMMIRQREMEEQMRRQREESYSRMGYMDPRERDMRMGGGGAMNMGDPYGSGGQKFPPLGGGGGIGYEANPGVPPATMSGSMMGSDMRTERFGQGGAGPVGGQGPRGMGPGTPAGYGRGREEYEGPNKKPRF
notes: expressed from transfected His-PSF vector or in vitro translated
binding to GST-PR fusion proteins containing the DBD domain (PR [1]): bound strongly | binding to other segments of PR (PR [2]): did not bind

Source: patent US20070286806A1, “Methods and Compositions for Modulating a Steroid Receptor” (Mount Sinai Hospital, priority 2004, published 2007)
